According to patent US20240287172A1 (SCIRHOM, published 2024):

T1: miR2-FL-WT-T7 (mouse, UniProt Q80WQ6 1-827)
T1 construct: on MEF-DKO cells
T1 sequence: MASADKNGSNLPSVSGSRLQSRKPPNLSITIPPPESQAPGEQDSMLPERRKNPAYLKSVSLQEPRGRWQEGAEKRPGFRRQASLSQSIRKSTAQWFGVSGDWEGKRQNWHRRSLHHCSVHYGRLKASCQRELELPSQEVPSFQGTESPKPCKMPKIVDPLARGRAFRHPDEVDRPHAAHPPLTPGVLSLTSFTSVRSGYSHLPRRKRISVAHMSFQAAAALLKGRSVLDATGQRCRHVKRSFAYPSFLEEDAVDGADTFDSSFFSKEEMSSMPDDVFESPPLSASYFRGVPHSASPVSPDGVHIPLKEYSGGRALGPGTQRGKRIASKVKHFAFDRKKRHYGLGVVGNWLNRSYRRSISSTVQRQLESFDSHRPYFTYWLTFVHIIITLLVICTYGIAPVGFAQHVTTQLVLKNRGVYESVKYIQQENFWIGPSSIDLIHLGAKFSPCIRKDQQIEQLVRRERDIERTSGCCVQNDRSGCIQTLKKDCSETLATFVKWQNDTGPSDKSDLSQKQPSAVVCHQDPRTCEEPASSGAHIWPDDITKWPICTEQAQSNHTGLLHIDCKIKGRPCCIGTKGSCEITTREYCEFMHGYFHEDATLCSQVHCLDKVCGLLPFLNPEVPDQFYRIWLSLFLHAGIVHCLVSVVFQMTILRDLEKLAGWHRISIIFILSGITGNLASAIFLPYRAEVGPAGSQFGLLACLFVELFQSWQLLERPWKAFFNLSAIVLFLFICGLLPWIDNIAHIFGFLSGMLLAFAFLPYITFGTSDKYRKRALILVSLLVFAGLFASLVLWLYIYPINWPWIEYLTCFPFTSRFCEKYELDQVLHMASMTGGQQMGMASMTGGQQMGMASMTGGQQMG

T2: hiR2-FL-P533-T7 (deletion of P533) (human, UniProt Q6PJF5 1-856)
T2 construct: single residue deletion, not a substitution; on MEF-DKO cells
T2 sequence: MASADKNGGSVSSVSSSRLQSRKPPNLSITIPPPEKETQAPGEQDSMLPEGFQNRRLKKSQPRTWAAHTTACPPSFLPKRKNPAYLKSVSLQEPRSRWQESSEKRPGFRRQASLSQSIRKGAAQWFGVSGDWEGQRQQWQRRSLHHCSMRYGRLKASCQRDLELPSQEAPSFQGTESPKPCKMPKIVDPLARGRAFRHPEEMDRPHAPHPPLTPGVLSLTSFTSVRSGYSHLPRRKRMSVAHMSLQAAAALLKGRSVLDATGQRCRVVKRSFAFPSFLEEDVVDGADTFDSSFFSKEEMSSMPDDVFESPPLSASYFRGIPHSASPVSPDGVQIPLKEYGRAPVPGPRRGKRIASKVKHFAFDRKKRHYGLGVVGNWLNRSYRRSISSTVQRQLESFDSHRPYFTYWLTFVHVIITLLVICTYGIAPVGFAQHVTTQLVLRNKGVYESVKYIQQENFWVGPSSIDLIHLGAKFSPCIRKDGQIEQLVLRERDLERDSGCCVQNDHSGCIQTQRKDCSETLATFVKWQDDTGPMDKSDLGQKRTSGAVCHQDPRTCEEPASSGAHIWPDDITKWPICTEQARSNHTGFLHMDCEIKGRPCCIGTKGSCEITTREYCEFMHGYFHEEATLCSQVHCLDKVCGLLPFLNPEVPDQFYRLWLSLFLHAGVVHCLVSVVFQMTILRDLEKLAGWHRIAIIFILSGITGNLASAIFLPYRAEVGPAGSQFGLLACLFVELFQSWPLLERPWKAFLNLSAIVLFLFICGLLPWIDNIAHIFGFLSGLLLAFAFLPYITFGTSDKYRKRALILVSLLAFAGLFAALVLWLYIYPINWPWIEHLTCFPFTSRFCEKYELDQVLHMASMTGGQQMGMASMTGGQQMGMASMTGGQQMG

B1: antibody 16 (antibody, V domains shown)
VH: QVTLKESGPGILQPSQTLSLTCSFSGFSLSTFALGVGWIRQPSGRGLEWLAHIWWDDDKYYNPALKSRLTISKDTSKNHVFLKIANVDTADTATYYCARITTYYYGMDYWGQGTSVTVSS
VL: DIVLSQSPATLSVTPGDSVSLFCRASQSIGNHLHWYQQESHASPRLLIKYASQSISGIPSRFSGSGSGTDFTLSINSVETEDFGMYFCQQSYNWPLTFGAGTKLELK
notes: mouse IgG, kappa light chain; also called clone #16; purified antibody 16
B2: antibody 5 (antibody, V domains shown)
VH: QVTLKESGPGILQPSQTLSLTCSFSGFSLSTFGMGVGWIRQPSGKGLEWLAHIWWDDEKYYNSALKSRLTISKATSKNQAFLKIANVDTADTATYYCARISNYGSNYWYFNVWGTGTTVTVSS
VL: QVVLTQSPALMSASPGEKVTMTCSAGSSVSCMYWYQQKPGSSPRVLIYDTSNLASGVPARFTGSGSGTSYSLTISRMEAEDAASYYCQQWNSYPLTFGAGTKLELK
notes: mouse IgG, kappa light chain; also called clone #5; purified antibody 5
B3: antibody 22 (antibody, V domains shown)
VH: QVTLKESGPGILQPSQTLSLTCSFSGFSLSTFGMGVGWIRQPSGKGLEWLAHIWWDDEKYYNSALKSRLTISKATSKNQVFLKIANVDTADTATYYCARISNYGSNYWYFNVWGTGTTVTVSS
VL: QVVLTQSPALMSASPGEKVTMTCSAGSSVSYMYWYQQKPGSSPRVLIYDTSNLASGVPARFTGSGSGTSYSLTISRMEAEDAATYYCQQWNSYPLTFGAGTKLELK
notes: mouse IgG, kappa light chain; also called clone #22; purified antibody 22
B4: antibody 42 (antibody, V domains shown)
VH: QVTLKESGPGILQPSQTLSLTCSLSGFSLSTFGRGVGWIRQPSGKGLEWLAHIWWDDEKYYNPALKSRLTISKDTSKNQVFLRIANVDTADTATYYCARIQNYGSNYWYFDVWGTGTTVTVSS
VL: LIVLTQSPAIMSASPGEKVTMTCGATSRISYMFWYQQKPGSSPRVLIYDTSNLASGVPVRFSGSGSGTSYSLTISRVEAEDVATYYCQQWNSYPLTFGAGTKLELK
notes: mouse IgG, kappa light chain; also called clone #42; purified antibody 42
B5: antibody 3 (antibody, V domains shown)
VH: QVTLKESGPGILQPSQTLSLTCSFSGFSLTTFAMGIGWVRQPSGKGLEWLAHIWWDGEKYNNPVLKSRLTISKDTSKNQVFLRIANVDTPDTATYYCARISSIYYIIDNWGQGTSVTVSS
VL: DIVLTQSPATLSVTPGHSVSLSCRASQSISNNLHWYQKKSHESPRLLIKYVSQSISGIPSRFSGSGSGTDFTLSINSVETEDFGMYFCQQSYNWPLTFGAGTKLELK
notes: mouse IgG, kappa light chain; also called clone #3; purified antibody 3
B6: antibody 34 (antibody, V domains shown)
VH: QVTLKESGPGILQPSQTLSLTCSFSGFSLSTFSLGVGWIRQSSGKGLEWLAHIWWDDEKYYNPALKSRLTISKDTSKNQVFLKIANVDAADTATYYCARAYYSKSYYALDYWGQGTSVTVSS
VL: DIQMTQSPSSLSASLGERVSLTCRASQEISGYLSWLQQKPDGTIKRLIYAASTLDSGVPKRFSGSRSGSDYSLAISSLESEDFADYYCLQYANFPFTFGSGTKLEIK
notes: mouse IgG, kappa light chain; also called clone #34; purified antibody 34
B7: antibody 43 (antibody, V domains shown)
VH: QVALKESGPGILQPSQTLSLTCSFSGFSLSTFGMGVGWIRQSSGKGLEWLANIWWDDDKYYNPALKSRLTISKDASKNQAFLKIANVDTADTATYYCARIGNYGSNYWYFDVWGTGTTVTVSS
VL: QIVLTQSPAIMSASPGERVTMTCSANSRISYMYWYQQKPGSSPRLLIYDTSNLASGVPVRFSGSGSGTSYSLTISRMEAEDAATYNCQQWSSYPLTFGAGTKLELK
notes: mouse IgG, kappa light chain; also called clone #43; purified antibody 43
B8: antibody 44 (antibody, V domains shown)
VH: QVTLKESGPGILQPSQTLSLTCSFSGFSLSTFGMGVGWIRQPSEKGLEWLAHIWWDDDKYYNPALKSRLTISKDTSKNQIFLKITNVDTAETATYYCSRIGNYGSNYWYFDVWGTGTTVTVSS
VL: QIVLTQSPAVMSASPGEKVTMTCTASSSVYYMYWYQQTPGSSPRLLIYDTSNLASGVPVRFSGSGSGTSYSLTISRMEAEDAATYYCQQWNTYPLTFGAGTKLELK
notes: mouse IgG, kappa light chain; also called clone #44; purified antibody 44

Tests used:
[1] = biological target: T1, miR2-FL-WT-T7; test: FACS on MEF-DKO cells
[2] = biological target: T2, hiR2-FL-P533-T7 (deletion of P533); test: FACS, MEF-DKO cells, 3 µg/ml
From the text: In brief, immortalized MEF-DKO-hiR2-FL-WT-T7 cells, MEF-DKO-miR2-FL-WT-T7 cells and MEF-DKO-hiR2-FL-R441K-T7, MEF-DKO-hiR2-FL-K443R-T7, MEF-DKO-hiR2-FL-V459I-T7, MEF-DKO-hiR2-FL-G481Q-T7, MEF-DKO-hiR2-FL-L488R-T7, MEF-DKO-hiR2-FL-L493I-T7, MEF-DKO-hiR2-FL-D496T-T7, MEF-DKO-hiR2-FL-H505R-T7, MEF-DKO-hiR2-FL-Q512L-T7, MEF-DKO-hiR2-FL- R513K-T7, MEF-DKO-hiR2-FL-D528N-T7, MEF-DKO-hiR2-FL-P533-T7, MEF-DKO-hiR2-FL-M534S-T7, MEF-DKO-hiR2-FL-G540S-T7, MEF-DKO-hiR2-FL-R543Q-T7, MEF-DKO-hiR2-FL-T544P-T7, MEF-DKO-hiR2-FL-G546A-T7, MEF-DKO-hiR2-FL-A547V-T7, MEF-DKO-hiR2-FL-R582Q-T7, MEF-DKO-hiR2-FL-F588L-T7, MEF-DKO-hiR2-FL-M591I-T7, MEF-DKO-hiR2-FL-E594K-T7, MEF-DKO-hiR2-FL-E626D-T7, MEF-DKO-hiR2-FL-L657I-T7, and MEF-DKO-hiR2-FL-H835Y-T7 cells were harvested with 10 mM EDTA in PBS, washed and resuspended in FACS buffer (PBS, 3% FBS, 0.05% sodium azide), and seeded in Nunc U-bottom 96-well plates (Thermo Fisher Scientific, USA) at approximately 3×10⁵ cells per well.
To pellet cells and remove supernatants, the plates were centrifuged at 1,500 rpm and 4° C. for 3 minutes. For primary staining, cells were resuspended in 100 μl per well of either FACS buffer alone (controls) or the purified antibodies 3, 5, 16, 22, 34, 42, 43, 44, 48, and 50 of the invention at 3 μg/ml FACS buffer and incubated on ice for 1 hour. Afterwards, plates were centrifuged at 1,500 rpm and 4° C. for 3 minutes and washed twice with 200 μl per well of FACS buffer. For secondary staining, cells were spun down and resuspended in 100 μl per well of PE-conjugated goat anti-mouse IgG F(ab′)2 detection fragment (Dianova, Germany) diluted 1:100 in FACS buffer. Protected from light, the cell suspensions were incubated on ice for 1 hour. Plates were then centrifuged at 1,500 rpm and 4° C. for 3 minutes and washed three times with 200 μl per well of FACS buffer. Finally, cells were resuspended in 150 μl per well of FACS buffer and analyzed using a BD Accuri™ C6 Plus flow cytometer (Becton Dickinson, Germany).

Row | Binder | binding result [1] | loss of binding vs wild type [2] [%]
1 | B1 | no binding (tested: 3 µg/ml) | ≥ 95
2 | B2 | no binding (tested: 3 µg/ml) | ≥ 95
3 | B3 | no binding (tested: 3 µg/ml) | ≥ 95
4 | B4 | no binding (tested: 3 µg/ml) | ≥ 95
5 | B5 |  | ≥ 95
6 | B6 | no binding (tested: 3 µg/ml) | ≥ 95
7 | B7 | no binding (tested: 3 µg/ml) | ≥ 95
8 | B8 | no binding (tested: 3 µg/ml) | ≥ 95
